The values below come from publication PMC7605441.

The labels stand for the following.
B1: wild-type murine RAD51AP1 fused to mCherry [mouse] / murine RAD51 with a C-terminal EGFP tag [mouse] (parent)
chain 1: MVRPTRNRKPINYSQFEDSGNDSDDDFISSSTPVNKSKTVPKVLKQDKPKPNLKNLQKEEVLPTEPPKKRVALDDKVFQRGLEVALALSVKELPTLTNQVKKSKEKSTDKQGKEKTENTGKPPRVSNCSVASDDVEDLDKITEEGDASSVEGERKSPSQAKAPRRRAPSEGSDGSSANDTESESATGEGSESDPDFDESKESDEDFGVRRSKESKKKTVQKKPAGEKKERKSKPKCEASVTSVDPAPAAIKSGSPSLPQAVGLPSEATRKPAIMCSPSAESKRPKWVPPAASGSRNSSSNALAGTPAKSPSQSLRLGLSRLAPVKRLHPSATSSQVR
chain 2: MAMQMQLEASADTSVEEESFGPQPISRLEQCGINANDVKKLEEAGYHTVEAVAYAPKKELINIKGISEAKADKILTEAAKLVPMGFTTATEFHQRRSEIIQITTGSKELDKLLQGGIETGSITEMFGEFRTGKTQICHTLAVTCQLPIDRGGGEGKAMYIDTEGTFRPERLLAVAERYGLSGSDVLDNVAYARGFNTDHQTQLLYQASAMMVESRYALLIVDSATALYRTDYSGRGELSARQMHLARFLRMLLRLADEFGVAVVITNQVVAQVDGAAMFAADPKKPIGGNIIAHASTTRLYLRKGRGETRICKIYDSPCLPEAEAMFAINADGVGDAKD

The variants in the first assay derive from B1. The assay is described as follows: co-immunoprecipitation (IP RAD51AP1, blot RAD51), band quantification. The following applies: asynchronous 293FT cells, transient co-expression, lane 5, parent: 1, read off a plot.
As for chain 1 MVRPTRNRKPINYSQFEDSGNDSDDDFISSSTPVNKSKTVPKVLKQDKPKPNLKNLQKEEVLPTEPPKKRVALDDKVFQRGLEVALALSVKELPTLTNQVKKSKEKSTDKQGKEKTENTGKPPRVSNCSVASDDVEDLDKITEEGDASSVEGERKSPSQAKAPRRRAPSEGSDGSSANDTESESATGEGSESDPDFDESKESDEDFGVRRSKESKKKTVQKKPAGEKKERKSKPKCEASVTSVDPAPAAIKSGSPSLPQAVGLPSEATRKPAIMCSPSAESKRPKWVPPAASGSRNSSSNALAGDPAKSPSQSLRLGLSRLAPVKRLHPSATSSQVR [chain 1 T305D], the ratio to parent was 0.07.

In the next assay the parent is B1. The assay is described as follows: co-immunoprecipitation (IP GFP-RAD51, blot RAD51AP1), band quantification. The following applies: asynchronous 293FT cells, transient co-expression, lane 15, parent: 1, read off a plot.
Turning to chain 1 MVRPTRNRKPINYSQFEDSGNDSDDDFISSSTPVNKSKTVPKVLKQDKPKPNLKNLQKEEVLPTEPPKKRVALDDKVFQRGLEVALALSVKELPTLTNQVKKSKEKSTDKQGKEKTENTGKPPRVSNCSVASDDVEDLDKITEEGDASSVEGERKSPSQAKAPRRRAPSEGSDGSSANDTESESATGEGSESDPDFDESKESDEDFGVRRSKESKKKTVQKKPAGEKKERKSKPKCEASVTSVDPAPAAIKSGSPSLPQAVGLPSEATRKPAIMCSPSAESKRPKWVPPAASGSRNSSSNALAGDPAKSPSQSLRLGLSRLAPVKRLHPSATSSQVR [chain 1 T305D], the ratio to parent worked out at 0.32.

The variants in another assay derive from B1. The assay is described as follows: co-immunoprecipitation (IP RAD51AP1, blot RAD51), band quantification. The following applies: asynchronous 293FT cells, transient co-expression, lane 8, parent: 1, read off a plot.
Consider chain 1 MVRPTRNRKPINYSQFEDSGNDSDDDFISSSTPVNKSKTVPKVLKQDKPKPNLKNLQKEEVLPTEPPKKRVALDDKVFQRGLEVALALSVKELPTLTNQVKKSKEKSTDKQGKEKTENTGKPPRVSNCSVASDDVEDLDKITEEGDASSVEGERKSPSQAKAPRRRAPSEGSDGSSANDTESESATGEGSESDPDFDESKESDEDFGVRRSKESKKKTVQKKPAGEKKERKSKPKCEASVTSVDPAPAAIKSGSPSLPQAVGLPSEATRKPAIMCSPSAESKRPKWVPPAASGSRNSSSNALAGAPAKAPSQSLRLGLSRLAPVKRLHPSATSSQVR [chain 1 T305A S309A], for which the ratio to parent was 0.95.

Variants of B1 are the subject of another assay. The assay can be described thus: co-immunoprecipitation (IP GFP-RAD51, blot RAD51AP1), band quantification. The conditions noted are these: asynchronous 293FT cells, transient co-expression, lane 18, parent: 1, read off a plot.
In the case of chain 1 MVRPTRNRKPINYSQFEDSGNDSDDDFISSSTPVNKSKTVPKVLKQDKPKPNLKNLQKEEVLPTEPPKKRVALDDKVFQRGLEVALALSVKELPTLTNQVKKSKEKSTDKQGKEKTENTGKPPRVSNCSVASDDVEDLDKITEEGDASSVEGERKSPSQAKAPRRRAPSEGSDGSSANDTESESATGEGSESDPDFDESKESDEDFGVRRSKESKKKTVQKKPAGEKKERKSKPKCEASVTSVDPAPAAIKSGSPSLPQAVGLPSEATRKPAIMCSPSAESKRPKWVPPAASGSRNSSSNALAGAPAKAPSQSLRLGLSRLAPVKRLHPSATSSQVR [chain 1 T305A S309A], the ratio to parent was 0.45.

In another assay the parent is B1. The assay is described as follows: co-immunoprecipitation (IP RAD51AP1, blot RAD51), band quantification. The conditions noted are these: asynchronous 293FT cells, transient co-expression, lane 6, parent: 1, read off a plot.
As for chain 1 MVRPTRNRKPINYSQFEDSGNDSDDDFISSSTPVNKSKTVPKVLKQDKPKPNLKNLQKEEVLPTEPPKKRVALDDKVFQRGLEVALALSVKELPTLTNQVKKSKEKSTDKQGKEKTENTGKPPRVSNCSVASDDVEDLDKITEEGDASSVEGERKSPSQAKAPRRRAPSEGSDGSSANDTESESATGEGSESDPDFDESKESDEDFGVRRSKESKKKTVQKKPAGEKKERKSKPKCEASVTSVDPAPAAIKSGSPSLPQAVGLPSEATRKPAIMCSPSAESKRPKWVPPAASGSRNSSSNALAGTPAKAPSQSLRLGLSRLAPVKRLHPSATSSQVR [chain 1 S309A], the ratio to parent came to 0.71.

In the next assay the parent is B1. The assay can be described thus: co-immunoprecipitation (IP GFP-RAD51, blot RAD51AP1), band quantification. The conditions noted are these: asynchronous 293FT cells, transient co-expression, lane 16, parent: 1, read off a plot.
Regarding chain 1 MVRPTRNRKPINYSQFEDSGNDSDDDFISSSTPVNKSKTVPKVLKQDKPKPNLKNLQKEEVLPTEPPKKRVALDDKVFQRGLEVALALSVKELPTLTNQVKKSKEKSTDKQGKEKTENTGKPPRVSNCSVASDDVEDLDKITEEGDASSVEGERKSPSQAKAPRRRAPSEGSDGSSANDTESESATGEGSESDPDFDESKESDEDFGVRRSKESKKKTVQKKPAGEKKERKSKPKCEASVTSVDPAPAAIKSGSPSLPQAVGLPSEATRKPAIMCSPSAESKRPKWVPPAASGSRNSSSNALAGTPAKAPSQSLRLGLSRLAPVKRLHPSATSSQVR [chain 1 S309A], the ratio to parent was 0.53.

A further assay covers variants of B1. The assay can be described thus: co-immunoprecipitation (IP RAD51AP1, blot RAD51), band quantification. The conditions noted are these: asynchronous 293FT cells, transient co-expression, lane 7, parent: 1, read off a plot.
With chain 1 MVRPTRNRKPINYSQFEDSGNDSDDDFISSSTPVNKSKTVPKVLKQDKPKPNLKNLQKEEVLPTEPPKKRVALDDKVFQRGLEVALALSVKELPTLTNQVKKSKEKSTDKQGKEKTENTGKPPRVSNCSVASDDVEDLDKITEEGDASSVEGERKSPSQAKAPRRRAPSEGSDGSSANDTESESATGEGSESDPDFDESKESDEDFGVRRSKESKKKTVQKKPAGEKKERKSKPKCEASVTSVDPAPAAIKSGSPSLPQAVGLPSEATRKPAIMCSPSAESKRPKWVPPAASGSRNSSSNALAGTPAKDPSQSLRLGLSRLAPVKRLHPSATSSQVR [chain 1 S309D], the ratio to parent was determined as 0.18.

The next assay covers variants of B1. The assay is described as follows: co-immunoprecipitation (IP GFP-RAD51, blot RAD51AP1), band quantification. The conditions noted are these: asynchronous 293FT cells, transient co-expression, lane 17, parent: 1, read off a plot.
Regarding chain 1 MVRPTRNRKPINYSQFEDSGNDSDDDFISSSTPVNKSKTVPKVLKQDKPKPNLKNLQKEEVLPTEPPKKRVALDDKVFQRGLEVALALSVKELPTLTNQVKKSKEKSTDKQGKEKTENTGKPPRVSNCSVASDDVEDLDKITEEGDASSVEGERKSPSQAKAPRRRAPSEGSDGSSANDTESESATGEGSESDPDFDESKESDEDFGVRRSKESKKKTVQKKPAGEKKERKSKPKCEASVTSVDPAPAAIKSGSPSLPQAVGLPSEATRKPAIMCSPSAESKRPKWVPPAASGSRNSSSNALAGTPAKDPSQSLRLGLSRLAPVKRLHPSATSSQVR [chain 1 S309D], the ratio to parent is 0.57.

Variants of B1 are the subject of a further assay. The assay can be described thus: co-immunoprecipitation (IP RAD51AP1, blot RAD51), band quantification. The conditions noted are these: asynchronous 293FT cells, transient co-expression, lane 9, parent: 1, read off a plot.
Consider chain 1 MVRPTRNRKPINYSQFEDSGNDSDDDFISSSTPVNKSKTVPKVLKQDKPKPNLKNLQKEEVLPTEPPKKRVALDDKVFQRGLEVALALSVKELPTLTNQVKKSKEKSTDKQGKEKTENTGKPPRVSNCSVASDDVEDLDKITEEGDASSVEGERKSPSQAKAPRRRAPSEGSDGSSANDTESESATGEGSESDPDFDESKESDEDFGVRRSKESKKKTVQKKPAGEKKERKSKPKCEASVTSVDPAPAAIKSGSPSLPQAVGLPSEATRKPAIMCSPSAESKRPKWVPPAASGSRNSSSNALAGDPAKDPSQSLRLGLSRLAPVKRLHPSATSSQVR [chain 1 T305D S309D], for which the ratio to parent amounted to 0.02.

The next assay covers variants of B1. The assay is described as follows: co-immunoprecipitation (IP GFP-RAD51, blot RAD51AP1), band quantification. The following applies: asynchronous 293FT cells, transient co-expression, lane 19, parent: 1, read off a plot.
For chain 1 MVRPTRNRKPINYSQFEDSGNDSDDDFISSSTPVNKSKTVPKVLKQDKPKPNLKNLQKEEVLPTEPPKKRVALDDKVFQRGLEVALALSVKELPTLTNQVKKSKEKSTDKQGKEKTENTGKPPRVSNCSVASDDVEDLDKITEEGDASSVEGERKSPSQAKAPRRRAPSEGSDGSSANDTESESATGEGSESDPDFDESKESDEDFGVRRSKESKKKTVQKKPAGEKKERKSKPKCEASVTSVDPAPAAIKSGSPSLPQAVGLPSEATRKPAIMCSPSAESKRPKWVPPAASGSRNSSSNALAGDPAKDPSQSLRLGLSRLAPVKRLHPSATSSQVR [chain 1 T305D S309D], the ratio to parent stood at 0.08.
